Laboratory results: article PMC11012335, “Hfq-Antisense RNA I Binding Regulates RNase E-Dependent RNA Stability and ColE1 Plasmid Copy Number”

Biological target: Hfq WT (Escherichia coli K-12 MG1655, UniProt P0A6X3 1-102)
Test: EMSA; EMSA: 20 mM Tris-HCl pH 7.6, 0.5 M NaCl, 1 mM EDTA, 1% glycerol, 20 min at 25 C; native PAGE in 0.5x TBE at 4 C
Conditions: protein: recombinant; tags: His tag removed with AcTEV protease; label: 3' fluorescein; single-stranded

GGGACAGUAUUUG (ssRNA, 3' fluorescein) [BR13]
binding result: binds
